{"source": "paper PMC12709424", "about": "“Markovian state models uncover casein kinase 1 dynamics that govern circadian period” (Biophysical Journal, 2025)", "molecules": {"B1": {"name": "PER3: PER homolog within the circadian system (protein, UniProt P56645 1-1201, looked up)", "Period circadian protein …": "MPRGEAPGPGRRGAKDEALGEESGERWSPEFHLQRKLADSSHSEQQDRNRVSEELIMVVQEMKKYFPSERRNKPSTLDALNYALRCVHSVQANSEFFQILSQNGAPQADVSMYSLEELATIASEHTSKNTDTFVAVFSFLSGRLVHISEQAALILNRKKDVLASSHFVDLLAPQDMRVFYAHTARAQLPFWNNWTQRAARYECAPVKPFFCRIRGGEDRKQEKCHSPFRIIPYLIHVHHPAQPELESEPCCLTVVEKIHSGYEAPRIPVNKRIFTTTHTPGCVFLEVDEKAVPLLGYLPQDLIGTSILSYLHPEDRSLMVAIHQKVLKYAGHPPFEHSPIRFCTQNGDYIILDSSWSSFVNPWSRKISFIIGRHKVRTSPLNEDVFATKIKKMNDNDKDITELQEQIYKLLLQPVHVSVSSGYGSLGSSGSQEQLVSIASSSEASGHRVEETKAEQMTLQQVYASVNKIKNLGQQLYIESMTKSSFKPVTGTRTEPNGGGECKTFTSFHQTLKNNSVYTEPCEDLRNDEHSPSYQQINCIDSVIRYLKSYNIPALKRKCISCTNTTSSSSEEDKQNHKADDVQALQAGLQIPAIPKSEMPTNGRSIDTGGGAPQILSTAMLSLGSGISQCGYSSTIVHVPPPETARDATLFCEPWTLNMQPAPLTSEEFKHVGLTAAVLSAHTQKEEQNYVDKFREKILSSPYSSYLQQESRSKAKYSYFQGDSTSKQTRSAGCRKGKHKRKKLPEPPDSSSSNTGSGPRRGAHQNAQPCCPSAASSPHTSSPTFPPAAMVPSQAPYLVPAFPLPAATSPGREYAAPGTAPEGLHGLPLSEGLQPYPAFPFPYLDTFMTVFLPDPPVCPLLSPSFLPCPFLGATASSAISPSMSSAMSPTLDPPPSVTSQRREEEKWEAQSEGHPFITSRSSSPLQLNLLQEEMPRPSESPDQMRRNTCPQTEYCVTGNNGSESSPATTGALSTGSPPRENPSHPTASALSTGSPPMKNPSHPTASALSTGSPPMKNPSHPTASTLSMGLPPSRTPSHPTATVLSTGSPPSESPSRTGSAASGSSDSSIYLTSSVYSSKISQNGQQSQDVQKKETFPNVAEEPIWRMIRQTPERILMTYQVPERVKEVVLKEDLEKLESMRQQQPQFSHGQKEELAKVYNWIQSQTVTQEIDIQACVTCENEDSADGAATSCGQVLVEDSC"}}, "key": {"[1]": {"biological_target": "Human CK1δ catalytic domain (CK1, residues 1–317), wild type (human) (UniProt P48730)", "sequence (P48730 other isoform, or with tags, fused parts or gaps mutant)": "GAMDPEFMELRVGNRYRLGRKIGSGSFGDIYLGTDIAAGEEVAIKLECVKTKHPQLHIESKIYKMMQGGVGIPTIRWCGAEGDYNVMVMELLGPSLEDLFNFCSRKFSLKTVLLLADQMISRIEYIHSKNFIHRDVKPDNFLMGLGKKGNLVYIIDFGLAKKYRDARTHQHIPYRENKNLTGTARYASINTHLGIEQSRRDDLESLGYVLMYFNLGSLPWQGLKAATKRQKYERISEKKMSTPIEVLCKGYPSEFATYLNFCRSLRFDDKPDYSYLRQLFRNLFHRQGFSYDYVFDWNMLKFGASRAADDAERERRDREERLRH"}, "CK1 [2]": {"system": "CK1", "assay": "32P-ATP time course kinase assay, PER3 FASP-like peptides", "format": "biochemical, human", "settings": "32P-ATP time course, 200 μM peptide, 200 nM CK1 (unprimed), 750 μM ATP, 30°C, pH 7.5; four independent assays; Fig. S15E, F", "method": "(§1) PER FASP region peptides were synthesized and purified to 95% or higher (SABio). Two independent reaction mixtures of 50 μL containing 200 μM of the FASP or in reaction buffer (25 mM Tris (pH 7.5), 7.5 mM MgCl2, 1 mM DTT, and 0.1 mg/mL BSA) were preincubated for 5 min with or without 20 nM CK1 (for primed FASP) or 200 nM CK1 (for unprimed FASP) and the reaction was started by addition of 750 μM of UltraPure ATP (Promega) containing 1–2 μCi of ɣ-^32p ATP (PerkinElmer). After incubation of the reaction mix at 30°C, an 8-μL aliquot of the reaction mix was transferred to P81 phosphocellulose paper (Reaction Biology Corp) at the indicated timepoints. […] The air-dried P81 paper was counted for Pi incorporation using a scintillation counter (PerkinElmer) by Cherenkov counting. […]\n(§2) To map binding sites on the surface of CK1, we employed FTMap, a fast computational approach that uses small organic probes to identify consensus sites (or pockets) that are likely to bind drug -like molecules. We submitted a series of conformations representative of the most populated MSM states to the FTMap server (https://ftmap.bu.edu/) and analyzed the results with FTProd. […] Tables S7 and S8 describe the consensus sites (CS) detected for WT and tau conformations, respectively. When a site is detected (colorful cells), it contains a score based on (1 picture or pasted object on this page, not shown here)"}, "CK1 D132A": {"system": "CK1 D132A", "assay": "32P-ATP time course kinase assay, CK1 D132A compared with WT", "format": "biochemical, human", "settings": "200 μM peptide, 30°C, pH 7.5, four independent assays", "method": "as §1\nas §2, with “(1 picture or pasted object on this page, not shown here)” left out"}, "CK1 [3]": {"system": "CK1", "settings": "cited from earlier work", "source_text": "Here, we further tested our model by introducing a lysine at the −3 position and a glutamate at the −1 position of PER3 FASP-like peptides (A610K/L612E) to mimic the PER2 FASP priming region and rescue priming activity. These mutant peptides were used in a ^32P-ATP time course kinase assay ..."}}}
{"molecule": "human PER2 FASP peptide, “priming only” (S665A)", "values": [{"measurement": "apparent Michaelis-Menten constant (KMapp) of CK1 priming activity, ADP-Glo substrate titration (200 nM CK1, 100 μM ATP, room temperature, 1 h)", "setting": "[1]", "result": 210, "unit": "µM"}]}
{"molecule": "human PER2 FASP peptide, alanine at position −1 (E661) in the “priming only” (S665A) background", "values": [{"measurement": "fold change of the apparent Michaelis-Menten constant (KMapp) against the WT “priming only” substrate, ADP-Glo substrate titration", "setting": "[1]", "result": 10, "unit": "fold"}]}
{"molecule": "RKKKPSTDIEGGAAR TLSTKAESVAAGIAQ [A610K/L612E (priming only), PER3 KAE peptide with serine residues downstream of the priming site mutated to alanine]", "values": [{"measurement": "CK1 activity in presence of −3K and −1E (in words)", "setting": "CK1 [2]", "result": "increase in CK1 activity"}]}
{"molecule": "RKKKTEVSAHLSSLTLP GKAESVVSLTSQ [unprimed FASP peptide, synthetic mouse PER2 FASP peptide, unprimed]", "values": [{"measurement": "activity of CK1 D132A compared with CK1 WT on unprimed FASP (in words)", "setting": "CK1 D132A; 200 nM CK1, 750 μM ATP, Fig. S15B", "result": "dramatic loss in activity"}]}
{"molecule": "human PER2 FASP peptide, alanine at position −3 (K659) in the “priming only” (S665A) background", "values": [{"measurement": "fold change of the apparent Michaelis-Menten constant (KMapp) against the WT “priming only” substrate, ADP-Glo substrate titration", "setting": "[1]", "result": 10, "unit": "fold"}]}
{"molecule": "RKKKPSTDIEGGAART LSTKAESVASGISQ [A610K/L612E, PER3 FASP-like peptide with −3K and −1E (A610K/L612E)]", "values": [{"measurement": "CK1 activity in presence of −3K and −1E (in words)", "setting": "CK1 [2]", "result": "increase in CK1 activity"}]}
{"molecule": "RKKKTEVSAHLSSLTL PGKAEpSVVSLTSQ [primed FASP peptide, synthetic mouse PER2 FASP peptide, pS659 primed]", "values": [{"measurement": "activity of CK1 D132A compared with CK1 WT on primed FASP (in words)", "setting": "CK1 D132A; 20 nM CK1, 750 μM ATP, Fig. S15C", "result": "more modest effect"}]}
{"molecule": "B1", "values": [{"measurement": "CK1 substrate status (in words)", "setting": "CK1 [3]", "result": "does not appear to be a substrate of the kinase"}]}
